From patent publication US20150072933A1, “NOVEL SEQUENCES FOR THE CONTROL OF REPRODUCTION IN FISH” (Yissum Research Development Company of the Hebrew …, priority 2011, published 2015)
*1 amine or outer side, *2 acyl side, *3 side chain or, on linkers, in order; H or OH if unused. Where no end group is shown, it is not given here. [ ]: non-standard residue; d: D form. NMeF = CN[C@@H](Cc1ccccc1)C(=O)O; Suc = O=C(CCC(=O)[*:2])[*:1]; NMeV = CN[C@H](C(=O)O)C(C)C

B1: NKBa-analog (Succ-Asp-Ile-Phe-N(Me)Val-Gly-Leu-Met-NH2) (peptide)
peptide: Suc-DIF[NMeV]GLM-NH2
SMILES: CC[C@H](C)[C@H](NC(=O)[C@H](CC(=O)O)NC(=O)CCC(=O)O)C(=O)N[C@@H](Cc1ccccc1)C(=O)N(C)[C@H](C(=O)NCC(=O)N[C@@H](CC(C)C)C(=O)N[C@@H](CCSC)C(N)=O)C(C)C

Experiments:
zfTac3ra [1] = test: Receptor transactivation assay, CRE-Luc reporter (PKA activation), COS-7 cells expressing zfTac3ra; assay type: cell-based, zebrafish; conditions: mean ± SEM
Description: (§1) In order to study the signaling pathways of the novel zebrafish NKBs, the entire coding regions of zftac3ra (denoted by SEQ ID NO:6) or zftac3rb (denoted by SEQ ID NO:7), or the cDNA clone for human NK3R (obtained from the Missouri S&T cDNA Resource Center, were inserted into pcDNA3.1 (Invitrogen). The luciferase assay was conducted according to Biran et al., 2008 [4] COS-7 cells were grown in DMEM supplemented with 10% FBS, 1% glutamine, 100 U/ml penicillin, and […] streptomycin (Biological Industries) under 5% CO2 until confluent. Cotransfection of either pc-zftac3ra, pc-zftac3rb or pc-Htac3r (at 3 μg/plate), a reporter plasmid (at 2 μg/plate), and pCMV-β-galactosidase (at 1 μg/plate) was carried out with FuGENE 6.0 reagent (Roche). The cells were serum starved for 36 h, stimulated with vehicle or various concentrations of either human (Sigma) or zebrafish NKBs for 6 h, and then harvested and analyzed. Lysates prepared from the harvested cells were assayed for both luciferase activity and β-galactosidase activity, which was used as an internal standard to normalize the luciferase activity directed by the test plasmid. Transfection experiments were performed in triplicate with three independently isolated sets. Protein structure prediction of zebrafish NKBa, NKBb or NKF were performed on I-Tasser servers.
(§2) The response, binding selectivity and signal transduction pathways of the novel tachykinin receptors to their agonists were evaluated by functional expression analysis, using COS-7 cells.
(§3) The NKB analogues (i.e. the NKBa-analog, NKBb-analog and NKF-analog, as denoted by SEQ ID NO. 44-46) were first analyzed in comparison to their native forms in a transactivation assay, using reporter genes for specific signal transduction pathways. To validate the specificity of the serum-responsive element (SRE)-Luc and cAMP-responsive element (CRE)-Luc reporter systems, specific activators for PLC/PKC and AC/PKA signaling pathways were used in control experiments.
(§4) Thus, the ability of the three novel piscine peptides (namely, NKBa, NKBb and NKF, denoted by SEQ ID NO.40, 41 and 42), as well as the ability of the three analogous agonistic peptides, namely, NKBa-analog, NKBb-analog and NKF-analog, to differentially activate the different tac3 receptors, using SRE as a reporter gene that follows PKC activation and CRE as a reporter gene for the PKA pathway, was tested. Human NK3R (human NKB receptor) and human NKB served as controls.

zfTac3rb [2] = test: Receptor transactivation assay, CRE-Luc reporter (PKA activation), COS-7 cells expressing zfTac3rb; assay type: cell-based, zebrafish; conditions: mean ± SEM
Description: as §1, §2, §3, §4

zfTac3ra [3] = test: Receptor transactivation assay, SRE-Luc reporter (PKC activation), COS-7 cells expressing zfTac3ra; assay type: cell-based, zebrafish; conditions: mean ± SEM
Description: as §1, §2, §3, §4

zfTac3rb [4] = test: Receptor transactivation assay, SRE-Luc reporter (PKC activation), COS-7 cells expressing zfTac3rb; assay type: cell-based, zebrafish; conditions: mean ± SEM
Description: as §1, §2, §3, §4

[5] = biological target: T1, zebrafish Tac3rb (tac3 receptor b, NKB receptor) (zebrafish); test: cell-based or functional assay
T1 chain: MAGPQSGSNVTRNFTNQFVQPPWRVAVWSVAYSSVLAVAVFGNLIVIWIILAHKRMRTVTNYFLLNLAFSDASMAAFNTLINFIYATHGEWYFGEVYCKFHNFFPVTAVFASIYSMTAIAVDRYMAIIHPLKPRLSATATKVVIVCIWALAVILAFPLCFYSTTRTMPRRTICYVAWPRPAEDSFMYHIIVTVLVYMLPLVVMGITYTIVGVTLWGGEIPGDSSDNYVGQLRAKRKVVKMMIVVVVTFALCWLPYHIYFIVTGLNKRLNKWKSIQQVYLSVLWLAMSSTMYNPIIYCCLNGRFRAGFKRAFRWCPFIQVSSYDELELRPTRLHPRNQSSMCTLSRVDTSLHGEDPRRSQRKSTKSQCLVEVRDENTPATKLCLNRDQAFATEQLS

[6] = biological target: T2, human NK3R (human NKB receptor) (human, UniProt P29371 1-465); test: cell-based or functional assay
T2 sequence (looked up): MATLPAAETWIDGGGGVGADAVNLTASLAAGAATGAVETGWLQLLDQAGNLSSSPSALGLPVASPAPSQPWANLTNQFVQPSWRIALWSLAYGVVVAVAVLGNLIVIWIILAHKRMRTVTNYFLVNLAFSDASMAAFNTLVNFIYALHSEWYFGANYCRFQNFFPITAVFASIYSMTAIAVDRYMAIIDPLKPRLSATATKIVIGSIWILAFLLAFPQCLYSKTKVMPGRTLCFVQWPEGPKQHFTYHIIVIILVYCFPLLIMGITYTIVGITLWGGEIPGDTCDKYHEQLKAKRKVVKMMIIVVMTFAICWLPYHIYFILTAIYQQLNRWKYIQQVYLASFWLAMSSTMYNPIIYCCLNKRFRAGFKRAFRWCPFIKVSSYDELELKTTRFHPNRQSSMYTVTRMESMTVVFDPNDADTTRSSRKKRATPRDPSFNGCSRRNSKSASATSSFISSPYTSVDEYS

[7] = biological target: T3, zebrafish Tac3ra (tac3 receptor a, NKB receptor) (zebrafish); test: cell-based or functional assay
T3 chain: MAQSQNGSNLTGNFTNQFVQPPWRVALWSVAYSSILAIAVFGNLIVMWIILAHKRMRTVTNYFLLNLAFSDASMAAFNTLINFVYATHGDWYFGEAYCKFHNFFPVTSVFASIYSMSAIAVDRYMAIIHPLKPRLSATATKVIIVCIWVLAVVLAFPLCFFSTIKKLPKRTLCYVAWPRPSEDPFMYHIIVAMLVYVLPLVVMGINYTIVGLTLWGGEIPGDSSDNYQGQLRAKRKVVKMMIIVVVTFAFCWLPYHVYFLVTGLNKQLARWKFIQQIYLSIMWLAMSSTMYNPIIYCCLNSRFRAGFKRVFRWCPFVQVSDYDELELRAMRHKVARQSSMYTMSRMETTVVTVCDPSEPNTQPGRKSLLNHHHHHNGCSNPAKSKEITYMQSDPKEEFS

[8] = biological target: T1, zebrafish Tac3rb (tac3 receptor b, NKB …); test: cell-based or functional assay
[9] = biological target: T2, human NK3R (human NKB receptor); test: cell-based or functional assay; remark: listed apart in the source
[10] = biological target: T3, zebrafish Tac3ra (tac3 receptor a, NKB …); test: cell-based or functional assay
[11] = biological target: T1, zebrafish Tac3rb (tac3 receptor b, NKB …); test: cell-based or functional assay
[12] = biological target: T2, human NK3R (human NKB receptor); test: cell-based or functional assay; remark: listed apart in the source
[13] = biological target: T3, zebrafish Tac3ra (tac3 receptor a, NKB …); test: cell-based or functional assay

EC50 (zfTac3ra [1]; Table 5, COS-7 cells, CRE-Luc follows PKA activation, read-out: EC50 CRE-Luc zfTac3ra)	EC50 (zfTac3ra [1]; Table 6 (native peptides and analogues), PKA activation, read-out: EC50 using CRE-Luc, zfTac3ra)	EC50 (zfTac3rb [2]; Table 5, COS-7 cells, CRE-Luc follows PKA activation, read-out: EC50 CRE-Luc zfTac3rb)	EC50 (zfTac3rb [2]; Table 6 (native peptides and analogues), PKA activation, read-out: EC50 using CRE-Luc, zfTac3rb)	EC50 (zfTac3ra [3]; Table 5, COS-7 cells, SRE-Luc follows PKC activation, read-out: EC50 SRE-Luc zfTac3ra)	EC50 (zfTac3ra [3]; Table 7 (native peptides and analogues), PKC activation, read-out: EC50 using SRE, zfTac3ra)	EC50 (zfTac3rb [4]; Table 5, COS-7 cells, SRE-Luc follows PKC activation, read-out: EC50 SRE-Luc zfTac3rb)	EC50 (zfTac3rb [4]; Table 7 (native peptides and analogues), PKC activation, read-out: EC50 using SRE, zfTac3rb)	EC50, CRE-Luc to follow PKA activation, transfected COS-7 cells [5]	EC50, CRE-Luc to follow PKA activation, transfected COS-7 cells [6]	EC50, CRE-Luc to follow PKA activation, transfected COS-7 cells [7]	EC50, SRE reporter gene that follows PKC activation, transfected COS-7 cells [8]	EC50, SRE reporter gene that follows PKC activation, transfected COS-7 cells [9]	EC50, SRE reporter gene that follows PKC activation, transfected COS-7 cells [10]	EC50, CRE-Luc reporter (PKA activation), transfected COS-7 cells [11]	EC50, SRE-Luc reporter (PKC activation), transfected COS-7 cells [11]	EC50, CRE-Luc reporter (PKA activation), transfected COS-7 cells [12]	EC50, SRE-Luc reporter (PKC activation), transfected COS-7 cells [12]	EC50, CRE-Luc reporter (PKA activation), transfected COS-7 cells [13]	EC50, SRE-Luc reporter (PKC activation), transfected COS-7 cells [13]	Molecule
12.9 ± 13.3 nM	12.9 ± 13.3 nM	8.12 ± 1.56 nM	8.12 ± 1.56 nM	2.2 ± 1.49 nM	2.2 ± 1.49 nM	0.82 ± 0.16 nM	0.82 ± 0.16 nM													CSCC[C@H](NC(=O)[C@H](CC(C)C)NC(=O)CNC(=O)[C@@H](NC(=O)[C@H](Cc1ccccc1)NC(=O)[C@H](Cc1ccccc1)NC(=O)[C@H](CC(=O)O)NC(=O)[C@H](Cc1c[nH]cn1)NC(=O)[C@H](CCSC)NC(=O)[C@@H](N)CC(=O)O)C(C)C)C(N)=O [huNKB, reference compound]
								2.18 nM	2.19 nM	1.68 nM	0.23 nM	0.94 nM	0.06 nM							Suc-DF[NMeV]GLM-NH2 [NKBb-analog (Succ-Asp-Phe-N(Me)Val-Gly-Leu-Met-NH2)]
								16.4 nM	6.64 nM	4.75 nM	26.1 nM	0.49 nM	0.62 nM	4.55 nM	1.47 nM	3.73 nM	0.49 nM	5.75 nM	0.5 nM	EMHDIFVGLM-NH2 [Zebrafish Tac3a peptide, neurokinin Ba (EMHDIFVGLM-NH2)]
								20.1 nM		49 nM	2.72 nM		2.68 nM	20.1 nM	2.72 nM			49 nM	2.67 nM	Suc-DF[NMeF]GLM-NH2 [Senktide (Succ-Asp-Phe-N(Me)Phe-Gly-Leu-Met-NH2)]
								11.9 nM	16.8 nM	6.94 nM	0.29 nM	3.44 nM	0.15 nM							B1
								8.12 nM		12.9 nM	0.82 nM		2.2 nM	8.12 nM	0.82 nM			12.9 nM	2.2 nM	DMHDFFVGLM-NH2 [human NKB (neurokinin B)]
								7.75 nM	7.33 nM	9.14 nM	0.54 nM	0.71 nM	0.31 nM							XDSFXGLM (N-terminal succinyl (Succ) on Asp; N(Me)Val; C-terminal amide (-NH2)) [NKF-analog (Succ-Asp-Ser-Phe-N(Me)Val-Gly-Leu-Met-NH2)]
